Results from the supplement of paper PMC12042874.
± gives the uncertainty stated by the source.

Assay: amyloid nucleation score (Sup35N fusion, yeast selection) (log enrichment); library NNK1; higher = more nucleation; inactive = no reads after selection
Method in brief: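 Growth for 7 days at 30°C on medium lacking adenine and uracil followed a 24-hour induction with 100 μM copper sulfate of psi-negative yeast expressing peptides of 20 random codons fused to Sup35N. Input and output plasmid inserts were sequenced with Illumina, and sequences with under 100 input reads were excluded. Nucleation score is the DiMSum log enrichment of output over input reads, centred on the mode score of non-aggregating sequences.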

Substance	amyloid nucleation score
IYIIPFDRNLYPISIHVLVR	inactive
NQRYHYLAAQWVDSWLVGCS	-0.256 ± 0.6
LLGYPSRLRPRYDFLPPGGM	0.014 ± 0.99
VFLVIVRYWCFFYHPVDTAN	inactive
VLKVCTWIKYLQSV	-0.279 ± 0.33
CQCGMVGVL	-0.005 ± 0.45
QNKSWAG	-0.509 ± 1.7
TIFTPNIR	0.132 ± 0.66
EGMFFRGSLSK	3.31 ± 0.16
HYFPVIDQAICFDSFRPMPV	inactive
VLLFNHYFLRAAVIIAWVGW	-0.618 ± 1.6
SKFVSKNCWTARGAL	-0.166 ± 0.48
NVSGNEMISGAFGIDEIDGS	0.189 ± 0.9
FTLSPLGCVYYDT	0.712 ± 0.72
VFLIEQPMERCK	0.199 ± 0.22
GNLSPSLCGHILLVTLIKGW	0.291 ± 0.39
RQSSSSHSMNSGQNILPFRL	0.279 ± 0.93
IALNRMFSISLVFYDKGFWY	inactive
FMFLESRPSNCSTTPCKY	-0.29 ± 0.6
SFDLGYPIFCKYTRT	0.576 ± 0.52
LGNMHREDYGSSGSRARFKG	-0.612 ± 0.74
RASKFGLLGHMAYSIYHYVM	-0.974 ± 1.7
YYFKRNTCCAAVLKHPFPVS	0.019 ± 0.99
RFNTWFVNYLCHPLYSLEG	5.55 ± 0.064
MWVFKTFCRRQRASVPNSLG	0.034 ± 0.27

Substance	amyloid nucleation score
TPNMCGWLVLTSM	-0.448 ± 0.62
ASMID	0.002 ± 0.27
YSSERTLLALVGT	-0.21 ± 0.51
SLSLIVVKNGIFLVH	3.16 ± 0.12
HQEAGLGSMVQTNAHATAKP	-0.081 ± 1
VMFRLTGELGDMKCGVLSDA	1.47 ± 0.38
LDRTVWH	0.757 ± 0.34
GGLVRSKFYFTL	0.19 ± 0.25
VYAQMALLR	-0.164 ± 0.62
SDIMDFEY	inactive
NRLNGNLPLNHR	0.014 ± 0.51
LDNRCKIRMVMMHSPRALRV	0.893 ± 0.81
FFYMDKLLCAQSPVRIFR	0.837 ± 0.84
TFIKNVTNRVHYGNALTHLG	-0.204 ± 0.66
HPMKCFQANQFINIYRNDVA	7.136 ± 0.059
RYWFLSYFHPANNYDDWKNC	-1.03 ± 1.2
NGLQMDCWPLCWRGGGARNC	0.582 ± 0.38
KGHRCNIVTTNTAPRFPW	-0.482 ± 0.91
LLGVLWFKVSCGARAQLGIW	-0.197 ± 1.9
TRMCLRAKSMWVVDSN	0.068 ± 0.48
VLKLLVVRFVPLPSSFYTCE	0.193 ± 0.92
TYYSGDSAYLPIDAIMLVWY	-1.07 ± 0.65
PLRTLPEQRCW	-0.006 ± 0.29
SLIKGSTKLPR	0.273 ± 0.6
SYPSGVLDSNNPVLARGLAQ	-0.227 ± 0.41

Substance	amyloid nucleation score
AGYGFKCMGYRLDLKTPFVY	0.019 ± 0.59
TDLLWKTSLLPNVY	1.71 ± 0.36
LCRIKGHRFIQVDTGEAVWS	-0.629 ± 0.61
VFPDASSMRVRGGIDTAQEL	0.037 ± 0.46
CVMVVSF	0.934 ± 0.42
ALAPPKNSFLLMLALILMLL	0.093 ± 0.53
MDIFDTLAWTF	0.632 ± 0.58
FFGVTYREYTWS	inactive
SFTYLCFKQILKPKCTLLAP	inactive
IQTKGNKDVIGVYITMYTRL	-0.671 ± 0.28
RWSRI	-0.253 ± 0.23
NRRLIIVNFVQSKDTCEWRG	2.77 ± 0.21
GFYVAETRKVRLCMARWYCG	0.368 ± 0.47
TVYLSNCERIYMQWVREFVS	2.68 ± 0.14
EKNYRICGFMGLLLFRIE	inactive
LTMPMKHLRGSPDLRVNGII	-0.502 ± 0.85
IPMPLCCVIPPWFTTFFVNQ	4.81 ± 0.092
YSLWFLRYSRNGSMRDLLRF	-0.447 ± 0.39
HSWCMSSSSIKFVCLENDLL	6.804 ± 0.061
VWIDLSMCIYMLEPLNSLFR	1.95 ± 0.19
VLSKFIVSDLMAISQNKLHR	inactive
VFLKHAPRGI	-0.077 ± 1.7
WNASMQSTGWFDILIYMCPV	3.19 ± 0.11
GISFP	-0.737 ± 0.31
FKGHRHY	0.318 ± 0.55

Substance	amyloid nucleation score
AMGTLVIKGRYFYIFSASFG	-1.52 ± 2.4
SITRKRVRRDAGGMVCGLVS	inactive
GPGPCWKPITGGWRTRKFTR	0.61 ± 0.56
AYCTLNR	0.603 ± 0.36
GDLKSILVVLFSSLCVPTLR	1.26 ± 0.21
VVSLNE	0.915 ± 0.9
SKRATYFFTASLGTQRCLMK	1.29 ± 0.9
NSPRPSLLCCPCGKAYLHFR	-0.282 ± 1.2
KRTLGTRGRIQVKSCPVGEL	-0.467 ± 0.35
FDDFHESARTGFNGKERSQM	1.01 ± 0.19
EYFMRGLLWLI	0.795 ± 0.39
MLVFNNFEPLFLFVSTWTCQ	7.11 ± 0.06
FSKFSAVVDDPVCWKRLIFL	-0.57 ± 0.53
PYTWTTTVPSAPKGLF	0.096 ± 0.48
MMKSRLDPCDNDNFFGRVSH	-0.257 ± 0.85
LSKISTVK	-0.778 ± 0.64
TVVWFTLIFLSLESSCINSL	1.22 ± 0.2
TFGGHNVAGASMHGSFGGSL	0.242 ± 0.3
NISVHDNNLFHVWNLMVDSG	5.83 ± 0.061
FIGVLIRSVCQSGARIV	0.514 ± 0.17
RISRSISVDALMIRAGYLPN	inactive
GHNLRLWCCNEADHFFRAQR	-1.16 ± 1.9
VKRKGAKISWQGAILRASVV	-0.963 ± 0.7
IACPYRHNGCNTRLRNINAV	-0.316 ± 0.42
LSRVKSR	1.29 ± 0.62

Substance	amyloid nucleation score
KLSNEYW	-0.485 ± 0.36
WHPYYIQVKGILALLSSVHH	3.18 ± 0.073
RIKVYALMHRSGGICTFIR	0.04 ± 0.21
INSNWASLRDRYARIASRSS	-0.372 ± 0.47
TIFLINIPANFSMGMLHAHR	0.303 ± 0.86
SLFLMIVVYHVHVRALYILV	0.531 ± 0.93
GGYGLYCDHRYVTTTWWHSS	0.926 ± 0.66
LLCARCRMSVSEFPNPGVSY	inactive
TYRTLAARRWQLAYALWVLL	-0.474 ± 0.6
HFVGMMMKSGGFARLTYNKG	0.443 ± 0.45
FREVMTGSNYRPTC	0.158 ± 0.64
ISSLTV	-1.33 ± 0.68
MALFSCCCKVYKMG	4.59 ± 0.1
ANISSGKFVRGSCENLARLR	-0.805 ± 0.59
SVIFWMGRRMLLLACVPESA	-0.128 ± 0.81
DVMLNCCGYCAPGGWVVVFS	5.33 ± 0.089
FSHDRGYLIFQVIRGHHCFM	0.277 ± 0.57
QKVHANSMM	0.973 ± 0.9
NGFRTSTSCVILLPFCKGQK	-0.129 ± 0.57
QLSVVNFKEM	-0.219 ± 0.7
RAVANCVLSLCYWNCCLYRY	-0.343 ± 1.4
MSLMSPAYNATNYWAVWRHK	-0.029 ± 0.27
FCSKTFL	1.35 ± 0.46
DWAGMCFANSIHMDMLDRVL	0.336 ± 0.4
WHFFVKKRVRCDSHSSMQWN	-0.677 ± 0.69

Substance	amyloid nucleation score
SEIYSTWNKV	0.002 ± 0.48
YLIEFCPL	-0.225 ± 0.34
IGYCKWGSDYGCESAT	1.07 ± 0.93
LYSNVRRFVWRGTWMWSRRC	0.969 ± 0.61
LIRLMSQ	1.83 ± 0.24
PQEFLFHTDQRSGCVITETS	0.179 ± 0.57
LLALRPASNKWNAYQTLTEP	-0.462 ± 0.57
GLRYSVYNCFLVCRGRREWP	5.54 ± 0.057
FIRVGLVCVLKFRSVGEAWL	-0.045 ± 0.9
VLNNLDLCSIRIVSKVSLFM	6.88 ± 0.085
SFDGDRLNVVMAQWL	-0.357 ± 0.58
FVVQPYHYKSY	0.264 ± 0.34
NYIEPQG	0.296 ± 0.97
PMMLDDTPKRSKQPHWIGGH	-0.584 ± 2.1
CKEINL	-0.374 ± 0.6
FKIVKSCSMFST	0.761 ± 0.24
EIRQVECLTCMRQ	-0.839 ± 1.2
ALSFHYKNLVNT	0.027 ± 0.49
GLGRSLKGHIMTAMRCMQGV	-0.691 ± 0.44
HNVQGRWFFRAHWMSYKHTI	0.249 ± 0.62
VFTGLLLL	-0.034 ± 0.36
MFTIF	0.045 ± 0.3
TSVSARFFFCRKISRMHRSS	-0.885 ± 1.1
TSRVH	0.228 ± 1.2
NWINNRG	1.03 ± 0.32

Substance	amyloid nucleation score
FFIRIVCLWG	0.659 ± 0.42
SCRSRTYERCLSLVNMEREG	3.27 ± 0.13
GFCFNECFLAGV	-0.285 ± 0.59
HWMFFYRDIFCVCVNSFL	4.17 ± 0.085
RSFFPSNRDTTRPQATFVAR	1.31 ± 0.68
EWGANYVGVDCSLVVRRQDV	0.497 ± 0.93
VALID	-0.215 ± 1.7
QMSVAG	1.38 ± 0.28
MDALMCYIFFKFE	4.89 ± 0.064
PTRLLLVSDRVTVHELF	inactive
TAVTCLL	-0.175 ± 1.2
NIYNVRLIVSH	-0.018 ± 0.54
MHITDGCGG	-0.456 ± 0.3
HVRHNVYISVCEVARDKRRG	5.12 ± 0.08
VFMSIRMWAFDLLYVSCGLA	-0.808 ± 0.42
SLIYNRIRFLDGF	0.925 ± 1.1
VNPNGGEDNVLGCPIRSWQW	-0.031 ± 1.2
FDSVHLRRSR	0.701 ± 0.43
FLVVETI	inactive
VYVIIWSIILGRTVAGWMYY	inactive
LSDRIAYVVRGC	0.137 ± 0.43
QGWSMVWYYSLESEETT	-0.377 ± 0.6
CLWSSVGRQTEWFSHEVNGG	0.017 ± 0.43
EFGRGSNRVEFIMGASLALT	1.09 ± 0.17
